How the values were obtained:
[1] = system: NRVM (neonatal rat ventricular CMs); assay: NRVM transfection (modRNA, siRNA, PH755): CM cell cycle markers and CM number; type: cell-based
Method: In vivo transfection of modRNA was done as described previously in a recent method paper (Magadum A., et al., Circulation. 2020, 141 (15): 1249-1265; Sultana N., et al., Mol Ther, 2017, 25 (6): 1306-1315) using sucrose citrate buffer containing 10 μl of sucrose in nuclease-free water (0.3 g/ml), 10 μl of citrate (0.1M pH-7; Sigma) mixed with 10 μl of different concentrations of modRNA in saline to a total volume of 30 μl. Immediately after LAD ligation, mice received an intra-myocardial injection of modRNA (100 μg) in total volume of 30 μL at 3 different sites (mid-anterior×2 places and apical anterior) in the peri-infarct area (Magadum A., et al., Circulation. 2020, 141 (15): 1249-1265; Magadum, A., et al., 2021, Advanced Science, 9:2004661). For in vitro transfection, RNAiMAX transfection reagent (Life Technologies) was used according to manufacturer's recommendation (Magadum A., et al., Circulation. 2020, 141 (15): 1249-1265; Sultana N., et al., Mol Ther, 2017, 25 (6): 1306-1315).
Mice hearts were harvested, weighed, and fixed in 4% PFA/PBS overnight on shaker and then washed with PBS for 1 hour and incubated in 30% sucrose/PBS at 4° C. for 12-18 hours. Hearts were then fixed in OCT and frozen at −80° C. (Magadum A., et al., Circulation. 2020, 141 (15): 1249-1265). Transverse heart sections (6-8 μm) were made using a cryostat. Frozen sections were rehydrated in PBS for 5-10 min followed by permeabilization with PBS with 0.1% Triton™ X100 (PBST) for 7-8 min. Heart sections were then treated with 3% H2O2 for 5 min and washed (3×5 min) with PBST. The samples were then blocked with PBS+10% Donkey normal serum+0.1% Triton™ X100 (PBSST) for 1 hour at room temperature. Primary antibodies (see complete list of primary antibodies used for this Example in Table 2 below) diluted in PBST were added and incubated overnight at 4° C. Slides were washed with PBST (3×5 min) followed by incubation with a secondary antibody (Invitrogen, 1:200) diluted in PBST for 90-120 min at room temperature. The samples were further washed with PBST (3×5 min) and stained with DAPI or Hoechst 33342 (1 μg/ml) diluted in PBST for 7 min. […] For immunostaining with wheat germ agglutinin (WGA) for CM size quantification, images were captured at 40× magnification, and ImageJ was used to determine the area of each cell. Quantitative analyses involved counting of multiple fields from 5-8 mouse hearts per group, and 3-4 sections/heart (˜50 cells per field assessed, for a total ˜250 cells per sample). […] BrdU positive CMs were counted in multiple fields from three independent samples per group and 3 sections/heart. The total number of CMs counted was ˜1-1.5×10^3 CMs per section. […]

cell cycle markers = assay: qPCR of cell-cycle-promoting genes and cell-cycle inhibitors in heart post-MI; type: in vivo, mouse; settings: 2 days post-MI; compared to Luc modRNA
Method: Total RNA was isolated using TRIzol™ RNA isolation and RNeasy® (Qiagen) then reverse transcribed with High-Capacity cDNA Reverse Transcription Kit (Applied Biosystems), according to the manufacturer's instructions. Real-time qPCR analyses were performed on a StepOnePlus™ Real-Time PCR System using SYBR™ Green (Applied Biosystems). The primer sequences were synthesized by IDT (see Table 4 below). Data were normalized to 18s expression, where appropriate (endogenous controls). Fold-changes in gene expression were determined by the […] method and were presented relative to an internal control.

GSK3β = assay: Western blot of Ser9 phosphorylation of GSK3β in NRVM; type: cell-based, rat; settings: compared to Luc modRNA
Method: Total protein was isolated from the respective cells or tissues at given time points. In brief, equal amounts of protein were resolved by SDS-PAG Electrophoresis system in 4%-15% Mini-PROTEAN TGX stain-free gels (Bio-Rad) and blotted onto nitrocellulose membranes (Bio-Rad). The membranes were blocked in Intercept® (TBS) blocking buffer (LI-COR) diluted 1:1 with PBS for 1 hour at room temperature and washed with PBST (1% Tween® 20, pH 7.4) for 10 min. Primary antibodies diluted in blocking buffer were added and incubated overnight at 4° C. Anti-PSAT1 (1:1,000, Invitrogen, #PA5-22124), anti-Flotillin 1 (1:1,000, Cell Signaling, #3253), anti-pSer9GSK3B (1:1,000, Cell Signaling, #9336), anti-GSK3B (1:1,000, Cell Signaling, #9315), and anti-β-actin (1:1000, Santa Cruz, #sc-47778) antibodies were used. The next day, membranes were washed with PBST (3×10 min). Anti-rabbit and anti-mouse IRDye 800CW secondary antibodies (LI-COR) were applied for 1 hr at room temperature. The membranes were washed with PBST (3×10 min) and antigen or antibody complexes were visualized and quantified using Odyssey Fc Imaging System (LI-COR Biosciences, model number 2800).

B1: PSAT1 modRNA: modified mRNA with N1-methylpseudouridine, transcribed in vitro, encoding phosphoserine aminotransferase 1 (ORF SEQ ID NO: 1, RNA SEQ ID NO: 2) (nucleic acid)
chain: AUGGAAGCCACCAAGCAAGUGGUUAACUUUGGGCCCGGGCCUGCCAAGCUGCCACACUCGGUAUUGUUGGAGAUCCAGAAGCAGCUACUAGACUACAGAGGACUCGGCAUCAGUGUGCUCGAAAUGAGUCACAGGUCAUCAGAUUUUGCCAAGAUUAUUGGCAAUACAGAGAAUCUUGUGAGGGAAUUGCUAGCUGUUCCCAACAACUACAAGGUGAUCUUUGUACAAGGAGGUGGGUCUGGCCAGUUCAGUGCUGUCCCCUUAAAUCUGAUUGGCCUGAAAGCUGGAAGGAGUGCUGACUACGUGGUGACCGGAGCUUGGUCAGCUAAGGCUGCGGAAGAAGCCAAGAAGUUUGGAACGGUGAACAUUGUCCACCCUAAACUUGGAAGUUACACAAAAAUUCCAGACCCAAGCACCUGGAACCUCAACCCGGACGCCUCCUAUGUAUACUUCUGUGCAAACGAGACUGUGCACGGGGUGGAGUUUGACUUCGUACCUGACGUCAAGGGAGCGGUGCUGGUCUGUGACAUGUCCUCAAACUUCUUAUCCAGGCCGGUGGAUGUUUCCAAGUUUGGUGUGAUUUUCGCUGGUGCUCAGAAGAAUGUUGGCUCUGCCGGGGUGACGGUGGUGAUUGUCCGGGAUGACCUGCUGGGGUUCUCGCUCAGAGAGUGCCCAUCAGUCCUUGACUACAAAGUGCAGGCUGGGAACAACUCUUUGUAUAACACACCUCCGUGCUUCAGCAUCUACGUCAUGGGCAUGGUCCUGGAAUGGAUCAAGAACAACGGCGGGGCCGCAGCCAUGGAGAAGCUCAGCUCCAUCAAAUCCCAAAUGAUUUAUGAGAUCAUUGAUAAUUCUCAAGGAUUUUAUGUAUGCCCAGUGGAGCGCCAGAAUAGAAGCAGGAUGAACAUCCCAUUUCGCAUUGGCAACGCCAAAGGAGACGAAGCUUUGGAAAAGCGGUUUCUUGACAAGGCGGUAGAACUCAACAUGAUCUCCUUGAAGGGGCACAGGUCAGUGGGAGGCAUUCGUGCCUCUCUGUAUAACGCUGUCACAACCGAAGACGUUGAGAAGCUGGCGGCCUUCAUGAAGAAUUUCUUGGAGAUGCAUCAGCUGUGA
modifications: N1-methylpseudouridine
**Q.** Which results are given for B1?
**A.** CM mitosis (pH3+) ([1]; NRVM, after 3 days, vs Luc modRNA): significantly induced; CM number ([1]; NRVM, in 5 days, vs Luc modRNA): increased; CM cell cycle restriction under SSP inhibition ([1]; NRVM, PSAT1 modRNA plus PH755 10 μM, compared to control, significantly lower rate than PSAT1 modRNA alone): partially reversed; dedifferentiation of CMs ([1]; post-PSAT1 modRNA expression): Increased; expression of positive cell cycle markers (cell cycle markers): induced; negative regulators of cell cycle markers (cell cycle markers): inhibiting; phosphorylation of GSK3β at Ser9 (GSK3β): induces

Reference: patent US20250215403A1, “Compositions and Methods for Cardiac Tissue Regeneration” (Temple University - Of The Commonwealth System Of Higher …, priority 2022, published 2025)
